Numbering of substitutions follows the chain as printed. Numbers in names are those of the source.
What was measured:
Type in all cases: cell-based, human
[1] = test system: wild-type and variant SNAP-GIPR; assay: Surface SNAP-GIPR expression (SNAP-tag labelling) in INS-1 cells; settings: Fig 4G; Mean
How it was run: (§1)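 Read-out: whole-cell fluorescence of surface-only SNAP label (Alexa Fluor 647, 500 nM, 10 min, RT), wide-field 20X, several FOVs per well. Flat-field corrected, phase-contrast masked, nontransfected-well signal subtracted; normalized to experiment mean or wild-type.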

[2] = test system: wild-type and variant SNAP-GIPR; assay: cADDis cAMP imaging in AD293 cells, ensemble, expression-matched and per decile; settings: Fig S3F, cADDis, mean;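 note: Ensemble cells as % of IBMX/FSK response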
How it was run: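 AD293 cells were transfected with SNAP-GIPR constructs and cotransduced with the cADDis Green Up cAMP sensor, then labeled after 24 h with 500 nM SNAP-Surface Alexa Fluor 647. Per-cell cADDis intensity was tracked at 37°C in KRBH with 6 mM glucose and 0.1% BSA.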

[3] = test system: wild-type and variant SNAP-GIPR; assay: Constitutive and agonist-mediated internalization, reversible SNAP-tag labelling, AD293 cells; set-up: key to Internalisation, Vehicle / Internalisation, +GIP / Internalisation, GIP-only: % internalization: residual fluorescence after Mesna vs pre-Mesna; Surface expression: unit not given here; settings: Mean; for +GIP internalisation (100 nM) / GIP-specific internalisation (100 nM) / Constitutive internalisation (100 nM) / Surface expression: Fig 4E; for +GIP internalisation (100 nM) / GIP-specific internalisation (100 nM): GIP 100 nM; for Internalisation, +GIP / Internalisation, GIP-only / Internalisation, Vehicle: Fig S4C, AD293
How it was run: (§2)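 Percentage internalization calculated as specific SNAP fluorescence remaining after 10 min Mesna exposure, relative to pre-Mesna signal, imaged in TNE buffer (pH 8.6).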

[4] = test system: wild-type and variant SNAP-GIPR; assay: Surface SNAP-GIPR expression (SNAP-tag labelling) in AD293 cells; settings: for AD293 Surface: Fig S3E, mean; for Surface SNAP-GIPR expression: sheet Fig 1C;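 for all read-outs here: scaled to the experimental average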
How it was run: as §1

[5] = test system: wild-type and variant SNAP-GIPR; assay: Constitutive and agonist-mediated internalization, reversible SNAP-tag labelling, INS-1 cells; set-up: key to Internalisation, GIP-only / Internalisation, Vehicle / Internalisation, +GIP: % internalization: residual fluorescence after Mesna vs pre-Mesna; settings: Mean; for +GIP internalisation (100 nM) / GIP-specific internalisation (100 nM) / Constitutive internalisation (100 nM): Fig 4G; for +GIP internalisation (100 nM) / GIP-specific internalisation (100 nM): GIP 100 nM; for Internalisation, +GIP / Internalisation, GIP-only / Internalisation, Vehicle: Fig S4C, INS-1
How it was run: as §2

[6] = test system: wild-type and variant SNAP-GIPR; assay: Single-concentration GIP cAMP response by HTRF in AD293 cells; settings: Fig S3F, HTRF, mean;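 note: ratio to experiment-wide average response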
Protocol: (§3) All variants were tested in parallel on each occasion to control for transfection efficiency differences between experiments.

[7] = test system: wild-type and variant SNAP-GIPR; assay: Single-concentration GIP cAMP response by HTRF in INS-1 cells; settings: Fig S3E, mean
Protocol: as §3

[8] = column repeated, paired with cAMP 100 nM

B1: L100F (protein, UniProt P48546 22-466, looked up, variant L100F)
Gastric inhibitory …: RAETGSKGQTAGELYQRWERYRRECQETLAAAEPPSGLACNGSFDMYVCWDYAAPNATARASCPWYLPWHHHVAAGFVFRQCGSDGQWGLWRDHTQCENPEKNEAFLDQRLILERLQVMYTVGYSLSLATLLLALLILSLFRRLHCTRNYIHINLFTSFMLRAAAILSRDRLLPRPGPYLGDQALALWNQALAACRTAQIVTQYCVGANYTWLLVEGVYLHSLLVLVGGSEEGHFRYYLLLGWGAPALFVIPWVIVRYLYENTQCWERNEVKAIWWIIRTPILMTILINFLIFIRILGILLSKLRTRQMRCRDYRLRLARSTLTLVPLLGVHEVVFAPVTEEQARGALRFAKLGFEIFLSSFQGFLVSVLYCFINKEVQSEIRRGWHHCRLRRSLGEEQRQLPERAFRALPSGSGPGEVPTSRGLSSGTLPGPGNEASRELESYC
Surface expression [1]: 1.643 | AD293 100 pM cADDis [2]: 37.4091 | AD293 100 nM cADDis [2]: 36.85 | +GIP internalisation (100 nM) [3]: 0.8469 | GIP-specific internalisation (100 nM) [3]: 0.2452 | Constitutive internalisation (100 nM) [3]: 0.6017 | Surface expression [3]: 1.442 | Internalisation, +GIP [3]: 58.6424 | Internalisation, GIP-only [3]: 16.9646 | Internalisation, Vehicle [3]: 41.6779 | AD293 Surface [4, 8]: 1.501 | AD293 Surface ([4]; paired with cAMP 100 pM): 1.501 | Surface SNAP-GIPR expression ([4]; replicate 1): 1.524 | Surface SNAP-GIPR expression ([4]; replicate 2): 1.675 | Surface SNAP-GIPR expression ([4]; replicate 3): 1.679 | Surface SNAP-GIPR expression ([4]; replicate 4): 1.13 | Surface SNAP-GIPR expression ([4]; replicate 5): 1.597 | Surface SNAP-GIPR expression ([4]; replicate 6): 1.532 | Surface SNAP-GIPR expression ([4]; replicate 7): 1.271 | Surface SNAP-GIPR expression ([4]; replicate 8): 1.313 | Surface SNAP-GIPR expression ([4]; replicate 9): 1.282 | Surface SNAP-GIPR expression ([4]; replicate 10): 1.519 | Surface SNAP-GIPR expression ([4]; replicate 11): 1.303 | Surface SNAP-GIPR expression ([4]; replicate 12): 1.295 | Surface SNAP-GIPR expression ([4]; replicate 13): 1.669 | Surface SNAP-GIPR expression ([4]; replicate 14): 1.299 | Surface SNAP-GIPR expression ([4]; replicate 15): 1.522 | Surface SNAP-GIPR expression ([4]; replicate 16): 1.442 | Surface SNAP-GIPR expression ([4]; replicate 17): 1.643 | Surface SNAP-GIPR expression ([4]; replicate 18): 1.736 | Surface SNAP-GIPR expression ([4]; replicate 19): 1.668 | Surface SNAP-GIPR expression ([4]; replicate 20): 1.712 | Surface SNAP-GIPR expression ([4]; replicate 21): 1.622 | Surface SNAP-GIPR expression ([4]; replicate 22): 1.675 | Surface SNAP-GIPR expression ([4]; replicate 23): 1.531 | Surface SNAP-GIPR expression ([4]; replicate 24): 1.559 | Surface SNAP-GIPR expression ([4]; replicate 25): 1.328 | Surface SNAP-GIPR expression ([4]; replicate 26): 1.878 | Surface SNAP-GIPR expression ([4]; replicate 27): 1.259 | Surface SNAP-GIPR expression ([4]; replicate 28): 1.697 | Surface SNAP-GIPR expression ([4]; replicate 29): 1.401 | Surface SNAP-GIPR expression ([4]; replicate 30): 1.456 | Surface SNAP-GIPR expression ([4]; replicate 31): 1.661 | Surface SNAP-GIPR expression ([4]; replicate 32): 1.58 | Surface SNAP-GIPR expression ([4]; replicate 33): 1.459 | Surface SNAP-GIPR expression ([4]; replicate 34): 1.249 | Surface SNAP-GIPR expression ([4]; replicate 35): 1.682 | Surface SNAP-GIPR expression ([4]; replicate 36): 1.611 | Surface SNAP-GIPR expression ([4]; replicate 37): 1.381 | Surface SNAP-GIPR expression ([4]; replicate 38): 1.301 | Surface SNAP-GIPR expression ([4]; replicate 39): 1.418 | Surface SNAP-GIPR expression ([4]; replicate 40): 1.406 | Surface SNAP-GIPR expression ([4]; replicate 41): 1.553 | +GIP internalisation (100 nM) [5]: 0.7901 | GIP-specific internalisation (100 nM) [5]: 0.1883 | Constitutive internalisation (100 nM) [5]: 0.6018 | Internalisation, +GIP [5]: 47.6567 | Internalisation, GIP-only [5]: 11.2267 | Internalisation, Vehicle [5]: 36.43 | AD293 100 pM HTRF [6]: 1.607 | AD293 100 nM HTRF [6]: 1.598 | INS-1 cAMP (100 nM) [7]: 1.416

B2: A207V (protein)
chain: B1 Gastric inhibitory … with F79L, A186V
Surface expression [1]: 1.239 | AD293 100 pM cADDis [2]: 35.8816 | AD293 100 nM cADDis [2]: 38.26 | +GIP internalisation (100 nM) [3]: 0.7742 | GIP-specific internalisation (100 nM) [3]: 0.2212 | Constitutive internalisation (100 nM) [3]: 0.553 | Surface expression [3]: 1.34 | Internalisation, +GIP [3]: 58.1109 | Internalisation, GIP-only [3]: 16.6766 | Internalisation, Vehicle [3]: 41.4343 | AD293 Surface [4, 8]: 1.462 | AD293 Surface ([4]; paired with cAMP 100 pM): 1.462 | Surface SNAP-GIPR expression ([4]; replicate 1): 1.611 | Surface SNAP-GIPR expression ([4]; replicate 2): 2.305 | Surface SNAP-GIPR expression ([4]; replicate 3): 1.718 | Surface SNAP-GIPR expression ([4]; replicate 4): 1.422 | Surface SNAP-GIPR expression ([4]; replicate 5): 1.389 | Surface SNAP-GIPR expression ([4]; replicate 6): 1.632 | Surface SNAP-GIPR expression ([4]; replicate 7): 1.104 | Surface SNAP-GIPR expression ([4]; replicate 8): 1.459 | Surface SNAP-GIPR expression ([4]; replicate 9): 1.373 | Surface SNAP-GIPR expression ([4]; replicate 10): 1.394 | Surface SNAP-GIPR expression ([4]; replicate 11): 1.581 | Surface SNAP-GIPR expression ([4]; replicate 12): 1.452 | Surface SNAP-GIPR expression ([4]; replicate 13): 1.286 | Surface SNAP-GIPR expression ([4]; replicate 14): 1.785 | Surface SNAP-GIPR expression ([4]; replicate 15): 1.758 | Surface SNAP-GIPR expression ([4]; replicate 16): 1.437 | Surface SNAP-GIPR expression ([4]; replicate 17): 1.378 | Surface SNAP-GIPR expression ([4]; replicate 18): 1.497 | Surface SNAP-GIPR expression ([4]; replicate 19): 1.272 | Surface SNAP-GIPR expression ([4]; replicate 20): 1.519 | Surface SNAP-GIPR expression ([4]; replicate 21): 1.502 | Surface SNAP-GIPR expression ([4]; replicate 22): 1.331 | Surface SNAP-GIPR expression ([4]; replicate 23): 1.374 | Surface SNAP-GIPR expression ([4]; replicate 24): 1.462 | Surface SNAP-GIPR expression ([4]; replicate 25): 1.289 | Surface SNAP-GIPR expression ([4]; replicate 26): 1.598 | Surface SNAP-GIPR expression ([4]; replicate 27): 1.353 | Surface SNAP-GIPR expression ([4]; replicate 28): 1.177 | Surface SNAP-GIPR expression ([4]; replicate 29): 1.377 | Surface SNAP-GIPR expression ([4]; replicate 30): 1.555 | Surface SNAP-GIPR expression ([4]; replicate 31): 1.582 | Surface SNAP-GIPR expression ([4]; replicate 32): 1.61 | Surface SNAP-GIPR expression ([4]; replicate 33): 1.695 | Surface SNAP-GIPR expression ([4]; replicate 34): 1.496 | Surface SNAP-GIPR expression ([4]; replicate 35): 1.543 | Surface SNAP-GIPR expression ([4]; replicate 36): 1.703 | Surface SNAP-GIPR expression ([4]; replicate 37): 1.143 | Surface SNAP-GIPR expression ([4]; replicate 38): 1.04 | Surface SNAP-GIPR expression ([4]; replicate 39): 1.054 | Surface SNAP-GIPR expression ([4]; replicate 40): 1.392 | Surface SNAP-GIPR expression ([4]; replicate 41): 1.284 | +GIP internalisation (100 nM) [5]: 0.5824 | GIP-specific internalisation (100 nM) [5]: 0.1595 | Constitutive internalisation (100 nM) [5]: 0.4229 | Internalisation, +GIP [5]: 49.74 | Internalisation, GIP-only [5]: 13.34 | Internalisation, Vehicle [5]: 36.4 | AD293 100 pM HTRF [6]: 1.772 | AD293 100 nM HTRF [6]: 1.3964 | INS-1 cAMP (100 nM) [7]: 1.4138

Reference: PMC13544220, “Glycemic and bodyweight effects of GIPR coding variation reflect differences in surface expression and intrinsic functional impairment” (Science Advances, 2026)
